Results as given in article PMC10746276.

Target: CsrA-His6 (Escherichia coli) (UniProt P69913)
Assay: EMSA
Settings: EMSA: 0.1 nM RNA, 10 mM MgCl2, 100 mM KCl, 32.5 ng yeast RNA, 20 mM DTT, 7.5% glycerol, 4 U SUPERasin, 30 min 37 C (pH not given), footprint: 2 nM RNA

Chain of CsrA-His6 (Escherichia coli) (P69913 whole entry): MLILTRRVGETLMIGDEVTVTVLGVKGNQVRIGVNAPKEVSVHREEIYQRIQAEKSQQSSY

Row | Substance | Kd [nM] | Kd (second shifted species at 30 nM CsrA and higher) [nM]
1 | yqjD leader full-length, BS4 mutant (CUGGA to GUGGA) | 25 | 
2 | yqjD leader WT, full-length (yqjC-yqjD intercistronic RNA) | 8 | 9
